The nature of series [1]: folding stability dG unfold from trypsin proteolysis; higher = more stable. An outline of the steps: (§1)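 K50 was inferred by Bayesian fitting of sequencing counts obtained after protease digestion of designed mini-proteins. Unfolding free energy was derived by comparison with a sequence-predicted unfolded-state K50 and a shared folded-state K50, for each protease or both combined. The mini-proteins were under 80 residues, had no cysteine, were carried in a PA-tagged cDNA display construct, and were kept only if AlphaFold2 dimer inter-PAE exceeded 15.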

Series [2] is described as follows: folding stability dG unfold from chymotrypsin proteolysis; higher = more stable. An outline of the steps: as §1
Series [3] is described as follows: folding stability dG unfold (combined trypsin and chymotrypsin); higher = more stable. An outline of the steps: as §1

± gives the half width of the 95% confidence interval.

“SAGGSAGPLERKVIVRTAPYTSPEEGEAYAEETKLAIASKLPESEKVTVEVTWDPETNTVTATIVSSAGGSA [r15_981_JUSTAS]”: the “folding stability dG unfold” value in series [1] was -0.491 ± 0.28 kcal/mol; in series [2], 1.14 ± 0.092 kcal/mol; in series [3], 0.722 ± 0.16 kcal/mol.
The like results for “SAGGSAGPMSVKEYEFEAVVPPGEEEAWVEEYIKKEFKSKIVKIEVKREKLPDGTYRVPVKITVKESAGGSA [r15_138_JUSTAS]” were, in that order, 0.433 ± 0.029 kcal/mol, 0.998 ± 0.12 kcal/mol and 0.775 ± 0.079 kcal/mol.
The like results for “SAGGSAGPSSKPIPLYVLFLEVTKPGGEKLPLVKLVKSPEEALKIAEEIASKGYEVKLVLAPASEISAGGSA [r15_906_TrMRF]” were, in that order, 2.74 ± 0.081 kcal/mol, 2.92 ± 0.07 kcal/mol and 2.88 ± 0.084 kcal/mol.
For the sequence “SAGGSAGSGFEEEAAAAFAASAGAMTLTVVEREPDSYTVATVTRTPGTGAPTVTVTTLSPETLAAASAGGSA [r15_156_JUSTAS]”, the “folding stability dG unfold” value in series [1] is 0.904 ± 0.048 kcal/mol; in series [2], 0.425 ± 0.13 kcal/mol; in series [3], 0.701 ± 0.12 kcal/mol.
As to “SAGGSAGVLEAVVFNPETGTFSVIPAAVLEKAFAANPADTELTFTLKDKPVKVFVFPGPGLAVVTGSAGGSA [r15_350_TrMRF]”, the “folding stability dG unfold” value in series [1] was determined as 1.14 ± 0.018 kcal/mol; in series [2], 1.56 ± 0.061 kcal/mol; in series [3] it was 1.45 ± 0.053 kcal/mol.
Regarding “SAGGSAGVPPGGRVRVLVYNPLTGEVREVELPVGSLEEFLRGANLPAPLPDGRPAPVVVEILEVEPSAGGSA [r15_797_TrMRF]”, the “folding stability dG unfold” value in series [1] was 1.77 ± 0.14 kcal/mol; in series [2], 3.11 ± 0.081 kcal/mol; in series [3], 2.64 ± 0.36 kcal/mol.
Consider “SAGGSAIDPRLLKLPKVKVEILSVEPVTGEDDKPFFVAKVKTDLEPGFYAYIILDPETGKIVKVFDSAGGSA [r15_66_TrMRF]”, for which the results for the “folding stability dG unfold” value in series [1], in series [2] and in series [3] were 1.19 ± 0.038 kcal/mol, 1.57 ± 0.093 kcal/mol and 1.4 ± 0.072 kcal/mol, respectively.
With “SAGGSAIEIEPAPDNVLVVTADLPPNVPAEKLVEALKDLIPDVEFETSSSADGRHVIVLRLPPDVFSAGGSA [r15_1047_TrMRF]”, the entries for the “folding stability dG unfold” value in series [1], in series [2] and in series [3] were 1.05 ± 0.044 kcal/mol, 0.961 ± 0.06 kcal/mol and 1.05 ± 0.07 kcal/mol, respectively.
Regarding “SAGGSAIENQFLRITMYHGNKPHTWTFPIKKVDIDPEDGNIEVYFPPEFRELFGGPMRITDIEFPPSAGGSA [r15_710_TrROS]”, the “folding stability dG unfold” value in series [1] is 1.14 ± 0.019 kcal/mol; in series [2], 1.63 ± 0.071 kcal/mol; in series [3] it was 1.46 ± 0.067 kcal/mol.
As to “SAGGSAIKLPSGVKIEFKKTEDGKYIVRVTLPDGKPIELEFEGDPEGPNNITPEEINDAILEKIKSSAGGSA [r15_780_TrMRF]”, the “folding stability dG unfold” value was 2.67 ± 0.11 kcal/mol in series [1], 3.23 ± 0.056 kcal/mol in series [2] and 3.06 ± 0.081 kcal/mol in series [3].
As to “SAGGSAIVIPVKSWEEFVEALKNAPASVEIIADLPDGNVIKAKIDPSKGPKIIITEVFPVPPELAGSAGGSA [r15_577_TrMRF]”, the figures for the “folding stability dG unfold” value in series [1], in series [2] and in series [3] were 0.515 ± 0.036 kcal/mol, 1.06 ± 0.053 kcal/mol and 0.859 ± 0.11 kcal/mol, respectively.
The like results for “SAGGSAIWIPADEIRELAKEPGLEVEKEPQPDGMLHFTIKNPKNGKRITIVVWDPENGWWHIMPIPSAGGSA [r15_442_TrROS]” were, in that order, 0.947 ± 0.019 kcal/mol, 0.854 ± 0.098 kcal/mol and 0.928 ± 0.083 kcal/mol.
On to “SAGGSAKEALVKAVEELFKKLFPDEPIEVLKVDPEKGRITIKVNSDEARKALEKALKELGIEVDLDSAGGSA [r15_196_TrMRF]”, for which the “folding stability dG unfold” value was 3.75 ± 0.11 kcal/mol in series [1], 2.91 ± 0.092 kcal/mol in series [2] and 3.34 ± 0.11 kcal/mol in series [3].
For the sequence “SAGGSAKGKKTRTITIMAPFDNKEEAREQAEEIADNIMNNLPDDMKIKVEVSWNPEDNYVMATIRISAGGSA [r15_981_TrROS]”, the “folding stability dG unfold” value in series [1] came out at 0.404 ± 0.3 kcal/mol; in series [2] it was 0.842 ± 0.11 kcal/mol; in series [3], 0.707 ± 0.25 kcal/mol.
On to “SAGGSAKIEEIASLPAEEIAEAFGLTVISATVERFEDGTVVLTVEIAPPLGPPIRVTFVFGVDPEKSAGGSA [r15_805_TrMRF]”, for which the “folding stability dG unfold” value came to 2.21 ± 0.045 kcal/mol in series [1], 4.19 ± 0.061 kcal/mol in series [2] and 3.75 ± 0.058 kcal/mol in series [3].
The like results for “SAGGSAKIEIERIEPRPVLVPRPDGSLVPVPEVEVELRIEGDPEKMEEEERKKIEALAEEIAKELGSAGGSA [r2_40_TrMRF]” were, in that order, -0.508 ± 0.16 kcal/mol, 0.736 ± 0.056 kcal/mol and 0.428 ± 0.16 kcal/mol.
On to “SAGGSAKIEITIFIPGMSEEEVKKLAEELAEELRKKGLSDEEIKEIKIKVYKVPVYKTEDGKLVKVSAGGSA [r15_684_TrROS_Hall]”, for which the “folding stability dG unfold” value in series [1] came to 0.884 ± 0.046 kcal/mol; in series [2], 1.82 ± 0.059 kcal/mol; in series [3], 1.44 ± 0.089 kcal/mol.
The like results for “SAGGSAKITIEKVDDQYRITVTVPVYDENGNKVPLTFDFVYPSDDPDAFLDDVIRRIRELNPDLEKSAGGSA [r15_1050_TrMRF]” were, in that order, 2.3 ± 0.073 kcal/mol, 3.01 ± 0.084 kcal/mol and 2.77 ± 0.1 kcal/mol.
Consider “SAGGSAKITIKPGETITITIKLENGETVEIRMRVEELPDGTYKITMEITYPDGSKIEMELTLKIKPSAGGSA [r15_476_TrROS_Hall]”, for which the results for the “folding stability dG unfold” value in series [1], in series [2] and in series [3] were 2.58 ± 0.21 kcal/mol, 4.43 ± 0.18 kcal/mol and 4.05 ± 0.44 kcal/mol, respectively.
The like results for “SAGGSAKKIKIFSLEELRERFPDLSEEELKKRAEELAKELAERLKEEGKPVEVEIVEVKLPEEEKKSAGGSA [r15_287_TrROS_Hall]” were, in that order, 0.382 ± 0.13 kcal/mol, 2.107 ± 0.015 kcal/mol and 1.69 ± 0.094 kcal/mol.
Consider “SAGGSAKKKIKIKVKNKDGSVYELEFDEENGIVKITYKDGKKEELSVEELKKLPLPKNITEVEIVPSAGGSA [r15_1043_TrROS_Hall]”, for which the figures for the “folding stability dG unfold” value in series [1], in series [2] and in series [3] were 1.57 ± 0.043 kcal/mol, 2.59 ± 0.036 kcal/mol and 2.25 ± 0.059 kcal/mol, respectively.
With “SAGGSAKKKKVTITIEVVKNKETGEYLVRIKIKVDGKEYEIVMSEDELKALIDAGVKIEKIEVYPRSAGGSA [r15_783_TrROS_Hall]”, the entries for the “folding stability dG unfold” value in series [1], in series [2] and in series [3] were 1.6 ± 0.017 kcal/mol, 2.99 ± 0.082 kcal/mol and 2.59 ± 0.1 kcal/mol, respectively.
The like results for “SAGGSAKKKVTITVEKKGDKYLVTIEVDGKTVVIEVPKDTTIEEIAAALPPGAKIKEIKVVKAEELSAGGSA [r15_1058_TrROS_Hall]” were, in that order, 0.716 ± 0.034 kcal/mol, 1.33 ± 0.031 kcal/mol and 1.16 ± 0.067 kcal/mol.
With “SAGGSAKKLPAEAVAKELAERLSKELGLTIKRVEVEVIDPEKGLVRVTVVYETPYGYLKREILLPVSAGGSA [r15_32_TrMRF]”, the “folding stability dG unfold” value stood at 1.83 ± 0.026 kcal/mol in series [1], 3.825 ± 0.033 kcal/mol in series [2] and 3.31 ± 0.1 kcal/mol in series [3].
With “SAGGSAKKPKWIPIKIKLPGSLEEAREWAEEIAKWLAKQNGDIKIDAIKYERDPNGHVEVTIQVRVSAGGSA [r15_718_TrROS]”, the “folding stability dG unfold” value was 2.36 ± 0.066 kcal/mol in series [1], 3.83 ± 0.059 kcal/mol in series [2] and 3.36 ± 0.086 kcal/mol in series [3].
For the sequence “SAGGSAKKTLKIKVKTPKGGLKTIEIPDSVKKIDIIPGKDYVKIIIYNPKTKKKIELPPFKVIEISSAGGSA [r15_133_TrMRF]”, the “folding stability dG unfold” value in series [1] was 1.26 ± 0.047 kcal/mol; in series [2], 2.01 ± 0.031 kcal/mol; in series [3], 1.79 ± 0.086 kcal/mol.
For “SAGGSAKKYIVLAKIKEVKVTKTYKTKNGKKVKVTVKVEIKVEPVKVFKIKKDKNGNWKIEPGEVLSAGGSA [r15_162_TrROS_Hall]”, the “folding stability dG unfold” value amounted to 2.96 ± 0.15 kcal/mol in series [1], 2.88 ± 0.14 kcal/mol in series [2] and 3.14 ± 0.28 kcal/mol in series [3].
As for “SAGGSAKMKITVEKNEDGELYVLIEVDSVEELEEALKKLPGIEKVEVEVFVDEETKRVYILVRVKPSAGGSA [r15_344_TrROS_Hall]”, the “folding stability dG unfold” value turned out to be 2.36 ± 0.071 kcal/mol in series [1], 3.62 ± 0.045 kcal/mol in series [2] and 3.26 ± 0.064 kcal/mol in series [3].
For the sequence “SAGGSAKPEKVIVLEIEIEMTPEEVKKLVEELLKEKFGVEIERIEVEVERLPDGTLKVRVRVVIRESAGGSA [r15_138_TrROS_Hall]”, the “folding stability dG unfold” value in series [1] is 3.31 ± 0.13 kcal/mol; in series [2], 2.94 ± 0.12 kcal/mol; in series [3] it was 3.17 ± 0.084 kcal/mol.
Turning to “SAGGSAKPKIEIEVEKLEGVKEGDTIEVKIKFPNGFIIKIEAKVKRVDGKLVIEVTKVEVIPKEDLSAGGSA [r15_636_TrROS_Hall]”, the entries for the “folding stability dG unfold” value in series [1], in series [2] and in series [3] were 2.7 ± 0.14 kcal/mol, 3.17 ± 0.2 kcal/mol and 3.16 ± 0.3 kcal/mol, respectively.
Consider “SAGGSAKPKITITVTYDKETNTVTVTITFPDGTTLTITVEAETEEEAKKAAKKLVEELLKKLEELESAGGSA [r15_477_TrROS_Hall]”, for which the “folding stability dG unfold” value in series [1] turned out to be 3.46 ± 0.27 kcal/mol; in series [2], 3.4 ± 0.2 kcal/mol; in series [3], 3.52 ± 0.23 kcal/mol.
Take “SAGGSAKPVIVKIHFPNMKPEKILELAKEFGAVPLKMDPNKGVAIVLATEEKVEEIAAKGNFKIEASAGGSA [r15_731_TrMRF]”: the “folding stability dG unfold” value in series [1] stood at 0.736 ± 0.043 kcal/mol; in series [2], 0.205 ± 0.39 kcal/mol; in series [3], 0.515 ± 0.26 kcal/mol.
Consider “SAGGSAKPVMVRIKFPNMPPEKLQDAFQEYGMQPQNMDPNKGEMIIMIPWEAAEEIQDKNGFKIEISAGGSA [r15_731_TrROS]”, for which the “folding stability dG unfold” value in series [1] is -0.489 ± 0.16 kcal/mol; in series [2], 0.8 ± 0.17 kcal/mol; in series [3] it was 0.323 ± 0.24 kcal/mol.
“SAGGSAKTITIYAPDLPLSEAIETLERLIKELGLTPVSVSVSYNPETGTVTITVTLPNGDTLTLHVSAGGSA [r15_958_TrMRF]”: the “folding stability dG unfold” value in series [1] amounted to 2.18 ± 0.058 kcal/mol; in series [2], 3.37 ± 0.046 kcal/mol; in series [3], 2.99 ± 0.079 kcal/mol.
The like results for “SAGGSAKTKVIEIEIDLSPEEIEELAKKLKEEGKVEEVKVEYDEKTGKVKVTVVVRDKNGEWKKLSSAGGSA [r15_177_TrROS_Hall]” were, in that order, 0.854 ± 0.066 kcal/mol, -0.0755 ± 0.48 kcal/mol and 0.556 ± 0.15 kcal/mol.
